Measured values: article PMC10752582 (eLife, 2023)

B1: 6xHis-BRAF kinase domain, wild type (amino acids 442-723 with 16 solubilizing mutations) (domain or fragment, UniProt P15056 442-723, looked up)
chain: GRRDSSDDWEIPDGQITVGQRIGSGSFGTVYKGKWHGDVAVKMLNVTAPTPQQLQAFKNEVGVLRKTRHVNILLFMGYSTKPQLAIVTQWCEGSSLYHHLHASETKFEMKKLIDIARQTARGMDYLHAKSIIHRDLKSNNIFLHEDNTVKIGDFGLATVKSRWSGSHQFEQLSGSILWMAPEVIRMQDSNPYSFQSDVYAFGIVLYELMTGQLPYSNINNRDQIIEMVGRGSLSPDLSKVRSNCPKRMKRLMAECLKKKRDERPSFPRILAEIEELARELSG
modifications: biotin (Sulfo-NHS-biotin, 50 molar excess) in the pull-downs on streptavidin beads
notes: BRAF kinase domain, amino acids 442-723, with 16 solubilizing mutations; Designed as in Cope et al., 2020; Amine-coupled to a carboxyl sensor in OpenSPR, biotinylated in pull-downs; also called KD; BRAF-KD; source: E. coli BL21 codon +, purified (cobalt resin, SEC); not shown: 6xHis, N-terminal, kept

Assays:
Experiment in all cases: SPR; OpenSPR; BRAF-KD WT or D594G amine-coupled to a carboxyl sensor (~6000 RUs), BRAF NTs flowed at 30 µL/min; 20 mM HEPES pH 7.4, 150 mM NaCl, 5% glycerol, 0.005% Tween-20, 1% BSA; 1:1 fit
Settings in all cases: both partners purified
[1] = molecular target: T1, untagged BRAF NT1 (His/MBP-tag removed by TEV protease) (UniProt P15056 1-288)
T1 construct: BRAF residues 1-288 (BSR, RBD and CRD); also called untagged NT1; source: E. coli BL21 codon +, purified, tag cleaved with TEV protease; not shown: 6xHis, N-terminal, cleaved; MBP, N-terminal, cleaved

[2] = molecular target: T2, His/MBP-BRAF NT1 (aa 1-288) (UniProt P15056 1-288)
T2 construct: BRAF residues 1-288 (BSR, RBD and CRD); Cloned in the pET28-MBP vector; also called His/MBP-NT1; source: E. coli BL21 codon +, purified (Ni-NTA, SEC); not shown: 6xHis, N-terminal, kept; MBP, N-terminal, kept

[3] = molecular target: B1

Kd [1] [nM]	Kd [2] [nM]	Kd [3] [nM]	Binder
13	11	–	B1
–	–	> 6000	BRAF-CRD only protein NT5 (residues 234-288) (domain or fragment, UniProt P15056 234-288, looked up, BRAF residues 234-288 (CRD only); also called BRAF NT5; source: E. coli BL21 codon +, purified) THNFVRKTFFTLAFCDFCRKLLFQGFRCQTCGYKFHQRCSTEVPLMCVNYDQLDL
